From the supplement of paper PMC9732359
± gives the uncertainty stated by the source.

Test: protein stability index of a GFP-peptide fusion (yeast GPS) (PSI 1-4); higher = more stable; sorted into four equal gates, so the index is relative within each strain
Outline: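 The protein stability index combines read frequencies across sorting gates, each weighted by its gate number and then summed. To obtain those frequencies, a pooled yeast library of GFP fusions to tiled 17-residue yeast protein peptides, on a plasmid also expressing Cherry, was grown to mid-log phase in leucine-free medium. The cells were sorted into four equal gates by GFP/Cherry ratio before plasmid amplification by PCR and Illumina sequencing.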

| Sequence | protein stability index (doa10∆) | protein stability index (pdr5∆) | protein stability index (san1∆) | protein stability index (ubr1∆) |
| --- | --- | --- | --- | --- |
| TFPPEVLARISPELSLQ [RRP43] | 2.32 ± 0.073 | 2.87 ± 0.11 | 2.53 ± 0.081 | 2.67 ± 0.071 |
| NEIEGKNEETPQNEKPP [RPC25] | 2.76 ± 0.21 | 3.14 ± 0.15 | 2.22 ± 0.11 | 3.3 ± 0.078 |
| KFLKIASLKHDNETKAM [RPN3] | 2.75 ± 0.1 | 3.16 ± 0.13 | 2.76 ± 0.1 | 3.17 ± 0.12 |
| EGDASPFTDITVEGISK [RPB2] | 3.17 ± 0.14 | 2.97 ± 0.17 | 3.08 ± 0.092 | 3.07 ± 0.21 |
| MENILQRCKSNAISLQL [YIL149C/MLP2] | 1.9 ± 0.046 | 2 ± 0.048 | 2.05 ± 0.071 | 1.57 ± 0.046 |
| STSNALKVLSGDEGYNE [SNF12] | 3.39 ± 0.11 | 3.24 ± 0.11 | 3.04 ± 0.059 | 3.5 ± 0.13 |
| LRRIITDLNQDSAAIIA [GRR1] | 2.64 ± 0.075 | 2.31 ± 0.068 | 2.6 ± 0.064 | 2.55 ± 0.053 |
| SIRAEAVAASSTKTGTP [POP1] | 3.48 ± 0.15 | 3.21 ± 0.1 | 3.08 ± 0.077 | 2.9 ± 0.069 |
| AKAPSGLDQSRIPFSER [FAS1] | 2.19 ± 0.081 | 2.19 ± 0.061 | 2.12 ± 0.25 | 2.56 ± 0.047 |
| PSKSQTNFKEEITDASL [YML103C/NUP188] | 2.93 ± 0.15 | 3.13 ± 0.11 | 3.02 ± 0.18 | 2.92 ± 0.18 |
| GRILQNLLHSYMEKGTQ [YML103C/NUP188] | 2.66 ± 0.14 | 2.51 ± 0.096 | 1.96 ± 0.086 | 2.51 ± 0.12 |
| LVLYDAENDVIEATDLG [BRR2] | 3.29 ± 0.13 | 3.26 ± 0.12 | 3.45 ± 0.092 | 3.24 ± 0.066 |
| CDEHMGLSLAGLAPDAR [PRE5] | 2.79 ± 0.18 | 3.08 ± 0.15 | 2.56 ± 0.12 | 2.76 ± 0.093 |
| KCLNYRNVNWIERLTKR [ITC1] | 2.91 ± 0.084 | 3.07 ± 0.052 | 2.96 ± 0.05 | 3.09 ± 0.038 |
| LPTPTPTEMEPDLDTEC [SWI1] | 2.92 ± 0.05 | 3.09 ± 0.05 | 2.77 ± 0.048 | 2.94 ± 0.032 |
| NIRGNTIRQIILPDSLN [SMD1] | 2.87 ± 0.15 | 2.94 ± 0.12 | 2.76 ± 0.16 | 3.27 ± 0.099 |
| TFTKKCLENARSQISEK [SIR4] | 3.2 ± 0.063 | 3.12 ± 0.057 | 3.15 ± 0.05 | 3.07 ± 0.041 |
| SYEVEHVIQIPLNKPLL [TAF14] | 2.46 ± 0.069 | 2.66 ± 0.045 | 2.52 ± 0.06 | 2.51 ± 0.055 |
| VATEPLLDILVKGETRI [PRP8] | 2.43 ± 0.057 | 2.41 ± 0.044 | 2.94 ± 0.06 | 1.8 ± 0.032 |
| TLSNAERAKNVNGLLQV [GAL11] | 3.22 ± 0.14 | 3.23 ± 0.1 | 3.08 ± 0.26 | 3 ± 0.098 |

| Sequence | protein stability index (doa10∆) | protein stability index (pdr5∆) | protein stability index (san1∆) | protein stability index (ubr1∆) |
| --- | --- | --- | --- | --- |
| RATPATLTELKDALSNS [SRB2] | 3.11 ± 0.12 | 3.11 ± 0.11 | 3.15 ± 0.12 | 3.42 ± 0.1 |
| ILQNEHDYWNKIMQSIS [SRB4] | 2.14 ± 0.079 | 2.37 ± 0.062 | 1.92 ± 0.11 | 2.35 ± 0.082 |
| NIKTIAETLAEELINAA [RPS5] | 2.29 ± 0.067 | 2.87 ± 0.073 | 2.85 ± 0.057 | 2.46 ± 0.048 |
| FKIWHGEINKICMESLF [PCI8] | 1.83 ± 0.1 | 1.46 ± 0.056 | 1.42 ± 0.1 | 1.87 ± 0.058 |
| KSLLLNTLNIDNTARVI [BRN1] | 2.71 ± 0.057 | 2.48 ± 0.052 | 2.47 ± 0.066 | 2.42 ± 0.034 |
| MPRAPRTYSKTYSTPKR [RPS9A] | 2.3 ± 0.064 | 2.45 ± 0.069 | 2.68 ± 0.053 | 2.62 ± 0.054 |
| DDKDCTIKISTNDDSIK [RGR1] | 2.89 ± 0.068 | 3.15 ± 0.067 | 2.98 ± 0.052 | 2.96 ± 0.057 |
| ALVFAALEHLKNLSLLA [SRP68] | 2.79 ± 0.12 | 2.75 ± 0.14 | 3.07 ± 0.065 | 2.92 ± 0.096 |
| IYATFLNESDCLEACSF [YDL116W/NUP84] | 2.56 ± 0.091 | 2.85 ± 0.087 | 2.6 ± 0.13 | 2.59 ± 0.057 |
| LSVDDIRGAVGNSEAIP [RTT102] | 3.35 ± 0.053 | 3.38 ± 0.057 | 3.3 ± 0.056 | 3.41 ± 0.047 |
| PRMYHIGLRQFQQIQYE [POP1] | 2.06 ± 0.098 | 1.67 ± 0.071 | 2.25 ± 0.095 | 1.48 ± 0.1 |
| NSDIANLRTQVTQQKRS [SMC1] | 3.05 ± 0.074 | 3.1 ± 0.055 | 2.97 ± 0.062 | 3.08 ± 0.066 |
| VHVIHFQHADNSSMRYG [AAR2] | 2.73 ± 0.081 | 2.7 ± 0.073 | 2.32 ± 0.11 | 2.53 ± 0.055 |
| ERLHELKKLQSDIESAN [SMC1] | 2.99 ± 0.076 | 3.23 ± 0.12 | 3.19 ± 0.061 | 3.2 ± 0.067 |
| MPPKQQLSKAAKAAAAL [RPS25A] | 1.73 ± 0.048 | 1.87 ± 0.05 | 1.76 ± 0.062 | 1.83 ± 0.042 |
| LYDRPLKPDLNKITNQG [NAS6] | 3.22 ± 0.096 | 3.42 ± 0.1 | 3.11 ± 0.07 | 3.4 ± 0.073 |
| AKKRRPAAKGKNLSFKR [RRP6] | 2.9 ± 0.12 | 2.92 ± 0.09 | 2.67 ± 0.095 | 2.81 ± 0.085 |
| IQCQIDKLYIHFVQEEP [RGR1] | 2.09 ± 0.093 | 2.55 ± 0.093 | 2.85 ± 0.083 | 3.15 ± 0.095 |
| SKQLSLEEKKKRPNNKT [IRR1] | 2.5 ± 0.11 | 2.59 ± 0.094 | 2.21 ± 0.15 | 2.79 ± 0.096 |
